{"source": "patent US20240092898A1", "binders": {"B1": {"name": "CD7-PP-7 (Fab, V domains shown)", "VH": "QVQLQESGAELVKPGASVKLSCKASGYTFTSYWMHWVKQRPGQGLEWIGKINPSNGGTNYNEKFKSKATLTVDKSSSTAYMQLSSLTSEDSAVYYCARGGVYYDLYYAALDYWGQGTTVTVSS", "VL": "DIELTQSPATLSVTPGDSVSLSCRASQSISNNLHWYQQKSHESPRLLIKSASQSISGIPSRFSGSGSGTDFTLSINSVETEDFGMYFCQQSNSWPYTFGGGTKLEIKR"}, "B2": {"name": "CD33-PP-1-WT (Fab, from another filing, V domains shown)", "VH": "EVQLVQSGAEVKKPGSSVKVSCKASGYTITDSNIHWVRQAPGQSLEWIGYIYPYNGGTDYNQKFKNRATLTVDNPTNTAYMELSSLRSEDTAFYYCVNGNPWLAYWGQGTLVTVSS", "VL": "DIQLTQSPSTLSASVGDRVTIICRASESLDNYGIRFLTWFQQKPGKAPKLLMYAASNQGSGVPSRFSGSGSGTEFTLTISSLQPDDFATYYCQQTKEVPWSFGQGTKLEIK"}}, "key": {"[1]": {"target": "CD7 on cells (human) (UniProt P09564)", "sequence (P09564 26-240)": "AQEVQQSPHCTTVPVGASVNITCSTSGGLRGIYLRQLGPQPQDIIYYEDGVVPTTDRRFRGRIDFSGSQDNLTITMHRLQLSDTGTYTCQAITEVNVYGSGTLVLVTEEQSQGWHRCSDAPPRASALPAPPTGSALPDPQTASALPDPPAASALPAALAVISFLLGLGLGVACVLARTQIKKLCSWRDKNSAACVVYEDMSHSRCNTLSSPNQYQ", "assay": "flow cytometry on cells; ratio to 7-PP-1 WT"}, "[2]": {"target": "CD7 on cells (human) (UniProt P09564)", "assay": "flow cytometry on cells; cell line and unit not stated"}, "[3]": {"target": "CD33 (human) (UniProt P20138)", "sequence (P20138 18-259 limits assumed)": "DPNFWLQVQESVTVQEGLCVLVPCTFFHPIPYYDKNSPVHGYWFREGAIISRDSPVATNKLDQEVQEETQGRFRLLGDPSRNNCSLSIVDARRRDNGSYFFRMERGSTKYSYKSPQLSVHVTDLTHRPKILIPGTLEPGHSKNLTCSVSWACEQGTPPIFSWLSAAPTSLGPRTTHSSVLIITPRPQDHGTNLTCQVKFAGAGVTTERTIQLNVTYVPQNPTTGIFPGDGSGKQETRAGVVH", "assay": "SPR"}}, "data": [{"binder": "B1", "values": [{"measurement": "FACS fold reduction compared to PP WT", "setting": "[1]", "value": 502, "unit": "fold"}, {"measurement": "FACS binding", "setting": "[2]", "value": 267}]}, {"binder": "B2", "values": [{"measurement": "Kd", "setting": "[3]", "value": 1.36, "unit": "nM"}]}]}
